According to patent US20240018189A1 (PROTAGONIST THERAPEUTICS, published 2024):
Starred links: 1 amine or outer side, 2 acyl side, 3 side chain; linkers in the order of their positions; H or OH if unused. Positions of bridges follow the written chain, without caps; N, C: chain ends. Non-standard residues stand in square brackets, D forms with d. Groups on a side chain read outwards from the residue. *: point of attachment. PEG12 = NCCOCCOCCOCCOCCOCCOCCOCCOCCOCCOCCOCCOCCC(=O)O; Pro(4Amino) = proline with a 4-amino group; Dip = N[C@H](C(=O)O)C(c1ccccc1)c1ccccc1; γGlu = O=C(O)[C@H](CCC(=O)[*:2])N[*:1]; Arg(Dimethyl) = dimethyl-arginine; Palmitoyl = CCCCCCCCCCCCCCCC(=O)*; β3hF = N[C@H](CC(=O)O)Cc1ccccc1; Cit = NC(=O)NCCC[C@H](N)C(=O)O; Spiral_Pip = not defined here; Isovaleryl = CC(C)CC(=O)*; Npc = nipecotic acid; Ahx = NCCCCCC(=O)O

B1: Compd. ID 20 (peptide)
peptide: DTHXPCIKXKKC
modifications: N-term isovaleric acid; 4 Dpa; 8 (D)Lys; 9 bhPhe; 10 Lys(Ahx-Palm); 11 (D)Lys; C-term NH2
B2: Compd. ID 21 (peptide)
peptide: DTHXPCIKXKXC
modifications: not fully specified; N-term isovaleric acid; 4 Dpa; 8 (D)Lys; 9 bhPhe; 10 Lys(Ahx-Palm); 11 Spiral_Pip; C-term NH2
B3: Compd. ID 22 (peptide)
peptide: DTHXPCIKXKRC
modifications: N-term isovaleric acid; 4 Dpa; 8 (D)Lys; 9 bhPhe; 10 Lys(Ahx-Palm); 11 Arg(Nitro); C-term NH2
B4: Compd. ID 23 (peptide)
peptide: DTHXPCIKXKRC
modifications: N-term isovaleric acid; 4 Dpa; 8 (D)Lys; 9 bhPhe; 10 Lys(Ahx-Palm); 11 Arg(Dimethyl); C-term NH2
B5: Compd. ID 24 (peptide)
peptide: DTHXPCIKXKXC
modifications: N-term isovaleric acid; 4 Dpa; 8 (D)Lys; 9 bhPhe; 10 Lys(Ahx-Palm); 11 Cit; C-term NH2
B6: Compd. ID 25 (peptide)
peptide: DTHXPCIKXKPC
modifications: N-term isovaleric acid; 4 Dpa; 8 (D)Lys; 9 bhPhe; 10 Lys(Ahx-Palm); 11 Pro(4-Amino); C-term NH2
B7: Compd. ID 26 (peptide)
peptide: DTHXPCIKXKXC
modifications: N-term isovaleric acid; 4 Dpa; 8 (D)Lys; 9 bhPhe; 10 Lys(Ahx-Palm); 11 Cav; C-term NH2
B8: Compd. ID 33 (peptide)
peptide: DTHXPCIKXKPRSKC
modifications: N-term isovaleric acid; 4 Dpa; 8 (D)Lys; 9 bhPhe; 10 Lys(2Peg11′_Palm); C-term NH2
B9: Compd. ID 36 (peptide)
peptide: DTHXPCIKXKKC
modifications: N-term isovaleric acid; 4 Dpa; 8 (D)Lys; 9 bhPhe; 10 Lys(2Peg11′_Sarc_Palm); 11 (D)Lys; C-term NH2
B10: Compd. ID 37 (peptide)
peptide: DTHXPCIKXKKC
modifications: N-term isovaleric acid; 4 Dpa; 8 (D)Lys; 9 bhPhe; 10 Lys(2Peg11′_Ahx_Palm); 11 (D)Lys; C-term NH2
B11: Compd. ID 38 (peptide)
peptide: DTHXPCIKXKKC
modifications: N-term isovaleric acid; 4 Dpa; 8 (D)Lys; 9 bhPhe; 10 Lys(Lys[Peg11_Palm]2); 11 (D)Lys; C-term NH2
B12: Compd. ID 39 (peptide)
peptide: DTHXPCIKXKKC
modifications: N-term isovaleric acid; 4 Dpa; 8 (D)Lys; 9 bhPhe; 10 Lys(Ahx_Ahx_Palm); 11 (D)Lys; C-term NH2
B13: Compd. ID 40 (peptide)
peptide: DTHXPCIKXKKC
modifications: N-term isovaleric acid; 4 Dpa; 8 (D)Lys; 9 bhPhe; 10 Lys(Ahx_Ahx_Ahx_Palm); 11 (D)Lys; C-term NH2
B14: Compd. ID 41 (peptide)
peptide: DTHXPCIKXKKC
modifications: N-term isovaleric acid; 4 Dpa; 8 (D)Lys; 9 bhPhe; 10 Lys(2Peg11′_Peg11_Palm); 11 (D)Lys; C-term NH2

Target: T1, human ferroportin (SLC40A1) fused in frame with GFP (human) (UniProt Q9NP59)
T1 sequence (looked up): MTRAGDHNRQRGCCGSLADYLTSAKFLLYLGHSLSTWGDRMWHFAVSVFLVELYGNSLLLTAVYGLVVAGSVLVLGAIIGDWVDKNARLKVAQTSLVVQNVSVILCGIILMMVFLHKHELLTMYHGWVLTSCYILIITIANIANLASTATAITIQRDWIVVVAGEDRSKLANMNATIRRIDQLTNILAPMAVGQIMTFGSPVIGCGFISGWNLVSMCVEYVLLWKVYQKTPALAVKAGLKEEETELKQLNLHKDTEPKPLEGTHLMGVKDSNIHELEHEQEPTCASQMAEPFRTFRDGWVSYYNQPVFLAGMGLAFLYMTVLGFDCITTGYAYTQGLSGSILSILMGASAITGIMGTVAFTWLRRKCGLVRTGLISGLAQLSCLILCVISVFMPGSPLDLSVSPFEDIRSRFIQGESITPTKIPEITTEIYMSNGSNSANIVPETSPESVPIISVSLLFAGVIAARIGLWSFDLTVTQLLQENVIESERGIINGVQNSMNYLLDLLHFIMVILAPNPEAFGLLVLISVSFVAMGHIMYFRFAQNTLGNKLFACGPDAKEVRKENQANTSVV
Assay: cell-based or functional assay

| Binder | FPN EC50 |
| --- | --- |
| Isovaleryl-DTH[Dip]PCI[β3hF]K([Ahx-Palmitoyl])[dK]C-NH2 (disulfide 6-11 (inferred)) [Compd. ID 18] | 10.8 nM |
| Isovaleryl-DTH[Dip][Npc]CIK([γGlu-Palmitoyl])[β3hF]C[dK]-NH2 (disulfide 6-10 (inferred)) [Compd. ID 19] | 4.56 nM |
| B1 | 6.66 nM |
| B2 | 37.5 nM |
| B3 | 30.1 nM |
| B4 | 41.6 nM |
| B5 | 45.8 nM |
| B6 | 25.7 nM |
| B7 | 32.2 nM |
| Isovaleryl-DTH[Dip]PCI[Spiral_Pip][β3hF]K([Ahx-Palmitoyl])[dK]C-NH2 (disulfide 6-12 (inferred); reading uncertain) [Compd. ID 27] | 26.3 nM |
| Isovaleryl-DTH[Dip]PCI[Arg(Nitro)][β3hF]K([Ahx-Palmitoyl])[dK]C-NH2 (disulfide 6-12 (inferred)) [Compd. ID 28] | 27.1 nM |
| Isovaleryl-DTH[Dip]PCI[Arg(Dimethyl)][β3hF]K([Ahx-Palmitoyl])[dK]C-NH2 (disulfide 6-12 (inferred)) [Compd. ID 29] | 10.6 nM |
| Isovaleryl-DTH[Dip]PCI[Cit][β3hF]K([Ahx-Palmitoyl])[dK]C-NH2 (disulfide 6-12 (inferred)) [Compd. ID 30] | 26.6 nM |
| Isovaleryl-DTH[Dip]PCI[Pro(4Amino)][β3hF]K([Ahx-Palmitoyl])[dK]C-NH2 (disulfide 6-12 (inferred)) [Compd. ID 31] | 18 nM |
| B8 | 25.4 nM |
| Isovaleryl-DTH[Dip]PCI[dK][β3hF]K([PEG12-Palmitoyl])PRSK[Sarc]C-NH2 (disulfide 6-16 (inferred)) [Compd. ID 34] | 23.6 nM |
| Isovaleryl-DTH[Dip]PCI[dK][β3hF]K([PEG12-Palmitoyl])P[dK]S[dK][Sarc]C[dK]-NH2 (disulfide 6-16 (inferred)) [Compd. ID 35] | 23.1 nM |
| B9 | 10.9 nM |
| B10 | 19.6 nM |
| B11 | 33 nM |
| B12 | 19.3 nM |
| B13 | 18.5 nM |
| B14 | 18.5 nM |
| DTHXPCIKXKRC (N-term isovaleric acid; 4 Dpa; 8 (D)Lys; 9 bhPhe; 10 Lys(Ahx-Palm); C-term NH2) [Compd. ID 2] | 11.8 nM |
